T1: PYR1 (Arabidopsis thaliana, UniProt O49686)
T1 construct: expressed in transfected cells; host or cells: S. cerevisiae strain Y190
T1 sequence (O49686 1-191): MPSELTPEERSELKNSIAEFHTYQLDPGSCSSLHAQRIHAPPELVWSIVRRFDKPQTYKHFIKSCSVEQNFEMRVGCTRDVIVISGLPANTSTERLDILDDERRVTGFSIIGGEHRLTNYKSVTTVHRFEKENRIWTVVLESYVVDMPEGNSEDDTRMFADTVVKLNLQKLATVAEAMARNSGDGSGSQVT


Target: T1, PYR1
Assay: Yeast two hybrid of pACT-HAB1 site saturation mutants with pBD-PYR1 on 10 μM ABA, β-galactosidase staining
Type: cell-based
Set-up: key: x: Mutations in HAB1 that disrupt HAB1 interaction with PYR1
Settings: S. cerevisiae Y190, 10 μM ABA; dead = lack of detectable staining in comparison to wild type control
Method in brief: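 HAB1 (lacking three N-terminal residues) site-saturation mutants in pACT were co-transformed with pBD-PYR1 into S. cerevisiae Y190 and spotted on SD (-Leu,-Trp) with 10 μM ABA. After 2 days at 30 °C, chloroform-lysed colonies were stained for β-galactosidase; "dead" means no detectable staining versus wild-type pair.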

Mutations in HAB1 that disrupt HAB1 interaction with PYR1 | Molecule
x | G392Y: HAB1 mutant (protein, UniProt Q9CAJ0 23-511, looked up, variant G392Y) Protein phosphatase 2C 16: SPVEITQLKNVTDAADLLSDSENQSFCNGGTECTMEDVSELEEVGEQDLLKTLSDTRSGSSNVFDEDDVLSVVEDNSAVISEGLLVVDAGSELSLSNTAMEIDNGRVLATAIIVGESSIEQVPTAEVLIAGVNQDTNTSEVVIRLPDENSNHLVKGRSVYELDCIPLWGTVSIQGNRSEMEDAFAVSPHFLKLPIKMLMGDHEGMSPSLTHLTGHFFGVYDGHGGHKVADYCRDRLHFALAEEIERIKDELCKRNTGEGRQVQWDKVFTSCFLTVDGEIEGKIGRAVVGSSDKVLEAVASETVGSTAVVALVCSSHIVVSNCGDSRAVLFRGKEAMPLSVDHKPDREDEYARIENAGGKVIQWQGARVFYVLAMSRSIGDRYLKPYVIPEPEVTFMPRSREDECLILASDGLWDVMNNQEVCEIARRRILMWHKKNGAPPLAERGKGIDPACQAAADYLSMLALQKGSKDNISIIVIDLKAQRKFKTRT
x | G392D: HAB1 mutant (protein, UniProt Q9CAJ0 23-511, looked up, variant G392D) Protein phosphatase 2C 16: SPVEITQLKNVTDAADLLSDSENQSFCNGGTECTMEDVSELEEVGEQDLLKTLSDTRSGSSNVFDEDDVLSVVEDNSAVISEGLLVVDAGSELSLSNTAMEIDNGRVLATAIIVGESSIEQVPTAEVLIAGVNQDTNTSEVVIRLPDENSNHLVKGRSVYELDCIPLWGTVSIQGNRSEMEDAFAVSPHFLKLPIKMLMGDHEGMSPSLTHLTGHFFGVYDGHGGHKVADYCRDRLHFALAEEIERIKDELCKRNTGEGRQVQWDKVFTSCFLTVDGEIEGKIGRAVVGSSDKVLEAVASETVGSTAVVALVCSSHIVVSNCGDSRAVLFRGKEAMPLSVDHKPDREDEYARIENAGGKVIQWQGARVFDVLAMSRSIGDRYLKPYVIPEPEVTFMPRSREDECLILASDGLWDVMNNQEVCEIARRRILMWHKKNGAPPLAERGKGIDPACQAAADYLSMLALQKGSKDNISIIVIDLKAQRKFKTRT
x | G392E: HAB1 mutant (protein, UniProt Q9CAJ0 23-511, looked up, variant G392E) Protein phosphatase 2C 16: SPVEITQLKNVTDAADLLSDSENQSFCNGGTECTMEDVSELEEVGEQDLLKTLSDTRSGSSNVFDEDDVLSVVEDNSAVISEGLLVVDAGSELSLSNTAMEIDNGRVLATAIIVGESSIEQVPTAEVLIAGVNQDTNTSEVVIRLPDENSNHLVKGRSVYELDCIPLWGTVSIQGNRSEMEDAFAVSPHFLKLPIKMLMGDHEGMSPSLTHLTGHFFGVYDGHGGHKVADYCRDRLHFALAEEIERIKDELCKRNTGEGRQVQWDKVFTSCFLTVDGEIEGKIGRAVVGSSDKVLEAVASETVGSTAVVALVCSSHIVVSNCGDSRAVLFRGKEAMPLSVDHKPDREDEYARIENAGGKVIQWQGARVFEVLAMSRSIGDRYLKPYVIPEPEVTFMPRSREDECLILASDGLWDVMNNQEVCEIARRRILMWHKKNGAPPLAERGKGIDPACQAAADYLSMLALQKGSKDNISIIVIDLKAQRKFKTRT
x | G392F: HAB1 mutant (protein, UniProt Q9CAJ0 23-511, looked up, variant G392F) Protein phosphatase 2C 16: SPVEITQLKNVTDAADLLSDSENQSFCNGGTECTMEDVSELEEVGEQDLLKTLSDTRSGSSNVFDEDDVLSVVEDNSAVISEGLLVVDAGSELSLSNTAMEIDNGRVLATAIIVGESSIEQVPTAEVLIAGVNQDTNTSEVVIRLPDENSNHLVKGRSVYELDCIPLWGTVSIQGNRSEMEDAFAVSPHFLKLPIKMLMGDHEGMSPSLTHLTGHFFGVYDGHGGHKVADYCRDRLHFALAEEIERIKDELCKRNTGEGRQVQWDKVFTSCFLTVDGEIEGKIGRAVVGSSDKVLEAVASETVGSTAVVALVCSSHIVVSNCGDSRAVLFRGKEAMPLSVDHKPDREDEYARIENAGGKVIQWQGARVFFVLAMSRSIGDRYLKPYVIPEPEVTFMPRSREDECLILASDGLWDVMNNQEVCEIARRRILMWHKKNGAPPLAERGKGIDPACQAAADYLSMLALQKGSKDNISIIVIDLKAQRKFKTRT

From patent publication US10919943B2, “Mutant proteins enabling agrochemical control of plant gene expression” (The Regents of the University of California, priority 2016, dated 2021)
